Assay results reported in publication doi:10.1101/2025.09.04.674342 (2025).

Target: CBP KIX domain (residues 586–672) (mouse, UniProt P45481 586-672)
Assay: NMR

Sequence of CBP KIX domain (residues 586–672) (P45481 586-672): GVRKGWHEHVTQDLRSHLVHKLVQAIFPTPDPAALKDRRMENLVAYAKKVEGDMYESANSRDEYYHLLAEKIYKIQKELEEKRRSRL

Kd: > 500 µM
B1: BMAL1 TAD switch peptide (residues 619–626, FSDLPWPL) (peptide)
peptide: FSDLPWPL
